According to publication PMC1373692:
Where two headings read alike, the source gives them in different places.

Columns and labels:
RecJ (native wild-type) [1] = target: T1, RecJ (native wild-type) (Escherichia coli, UniProt P21893 1-577); experiment: EMSA
T1 sequence: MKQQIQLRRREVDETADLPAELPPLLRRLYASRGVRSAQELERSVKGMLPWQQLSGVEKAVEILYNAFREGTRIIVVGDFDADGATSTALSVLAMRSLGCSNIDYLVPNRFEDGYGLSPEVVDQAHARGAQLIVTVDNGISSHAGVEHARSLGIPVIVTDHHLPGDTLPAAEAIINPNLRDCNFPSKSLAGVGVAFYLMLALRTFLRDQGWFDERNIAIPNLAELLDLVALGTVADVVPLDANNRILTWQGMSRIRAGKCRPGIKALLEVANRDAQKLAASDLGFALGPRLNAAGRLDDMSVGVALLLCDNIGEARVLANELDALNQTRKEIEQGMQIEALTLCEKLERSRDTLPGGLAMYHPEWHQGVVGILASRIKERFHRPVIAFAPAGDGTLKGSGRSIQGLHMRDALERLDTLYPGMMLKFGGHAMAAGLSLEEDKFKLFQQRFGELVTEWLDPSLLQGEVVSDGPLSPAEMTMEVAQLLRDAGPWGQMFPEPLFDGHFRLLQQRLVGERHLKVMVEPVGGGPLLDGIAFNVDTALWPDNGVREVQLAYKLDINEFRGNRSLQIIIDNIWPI

RecJ (native wild-type) [2] = target: T1, RecJ (native wild-type); experiment: EMSA; remark: listed apart in the source
RecJ (native wild-type) [3] = target: T1, RecJ (native wild-type); experiment: EMSA; remark: listed apart in the source
RecJf (MBP-RecJ fusion) = target: T2, RecJf (MBP-RecJ fusion) (UniProt P21893 1-577); experiment: EMSA
T2 sequence: T1 sequence

[4] = target: RecJ (native wild-type);SSB (Escherichia coli;Escherichia coli?, UniProt P21893;P0AGE0 1-577;2-178, |); experiment: EMSA, supershift
SSB = SSB (UniProt P0AGE0 2-178); experiment: EMSA
RecJ (native wild-type) [5] = target: T1, RecJ (native wild-type); experiment: EMSA; remark: listed apart in the source

RecJ (native wild-type);SSB, sequence (P0AGE0 2-178, one chain of several): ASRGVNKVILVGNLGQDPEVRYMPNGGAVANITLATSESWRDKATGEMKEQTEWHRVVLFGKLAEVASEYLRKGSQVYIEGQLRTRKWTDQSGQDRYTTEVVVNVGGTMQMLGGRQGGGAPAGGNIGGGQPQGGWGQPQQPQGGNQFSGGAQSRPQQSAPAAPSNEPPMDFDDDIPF
SSB, sequence (P0AGE0 2-178): as the sequence (P0AGE0 2-178, one chain of several) above

B1: A/C 10 nt 5' tail (dsDNA)
DNA 1: GCCCAGGTGGCAGGCCCTAGGGTGGAGGGGAGGCCGCCGGCATGGGGACGCGATGGGCGGAGGCG
DNA 2: CGCCTCCGCCCATCGCGTCCCCATGCCGGCGGCCTCCCCTCCACCCTAGGGCCTG
modifications: 5' phosphate on A from labeling
Work on B1 yielded a Kd (RecJ (native wild-type) [1]) of 9.5 nM.

B2: A/E 65 bp duplex (dsDNA)
DNA 1: B1 DNA 1
DNA 2: CGCCTCCGCCCATCGCGTCCCCATGCCGGCGGCCTCCCCTCCACCCTAGGGCCTGCCACCTGGGC
modifications: 5' phosphate on A from labeling
B2: no binding (RecJ (native wild-type) [2]).

B3: A 8 nt 5' tail (dsDNA)
DNA 1: B1 DNA 1
DNA 2: CGCCTCCGCCCATCGCGTCCCCATGCCGGCGGCCTCCCCTCCACCCTAGGGCCTGCC
modifications: 5' phosphate on A from labeling
B3: binds (RecJ (native wild-type) [3]).

B4: A 9 nt 5' tail (dsDNA)
DNA 1: B1 DNA 1
DNA 2: CGCCTCCGCCCATCGCGTCCCCATGCCGGCGGCCTCCCCTCCACCCTAGGGCCTGC
modifications: 5' phosphate on A from labeling
B4: binds (RecJ (native wild-type) [3]).

B5: A 5 nt 5' tail (dsDNA)
DNA 1: B1 DNA 1
DNA 2: CGCCTCCGCCCATCGCGTCCCCATGCCGGCGGCCTCCCCTCCACCCTAGGGCCTGCCACC
modifications: 5' phosphate on A from labeling
B5: no binding (RecJ (native wild-type) [3]).

B6: oligonucleotide A (65mer) (ssDNA)
DNA: B1 DNA 1
modifications: 5' phosphate from labeling
B6: binds (RecJf (MBP-RecJ fusion)); binds [4]; binds (SSB). B6: binds (RecJ (native wild-type) [5]).

B7: A 7 nt 5' tail (dsDNA)
DNA 1: B1 DNA 1
DNA 2: CGCCTCCGCCCATCGCGTCCCCATGCCGGCGGCCTCCCCTCCACCCTAGGGCCTGCCA
modifications: 5' phosphate on A from labeling
B7: binds (RecJ (native wild-type) [3]).

B8: A/B 20 nt 5' tail (dsDNA)
DNA 1: B1 DNA 1
DNA 2: CGCCTCCGCCCATCGCGTCCCCATGCCGGCGGCCTCCCCTCCACC
modifications: 5' phosphate on A from labeling
Binder B8 has a Kd (RecJ (native wild-type) [1]) of 33 nM.

B9: A/D 4 nt 5' tail (dsDNA)
DNA 1: B1 DNA 1
DNA 2: CGCCTCCGCCCATCGCGTCCCCATGCCGGCGGCCTCCCCTCCACCCTAGGGCCTGCCACCT
modifications: 5' phosphate on A from labeling
B9: no binding (RecJ (native wild-type) [2]).
